Measurements from US20090010911A1, “METHODS AND COMPOSITIONS FOR AFFECTING CYCLOPHILIN A REGULATION OF KINASES IN MODULATING CELLULAR ACTIVITIES” (IOWA STATE UNIVERSITY RESEARCH FOUNDATION, INC., priority 2007, published 2009).

T1: Itk full-length enzyme (Mus musculus, UniProt Q03526)
T1 construct: Full-length Itk, Btk and Tec and the Itk kinase domain fragments were PCR amplified; made in house; host or cells: Sf9 insect cells (baculovirus), co-infected 1:1 with Lck baculovirus
T1 sequence (Q03526 1-625): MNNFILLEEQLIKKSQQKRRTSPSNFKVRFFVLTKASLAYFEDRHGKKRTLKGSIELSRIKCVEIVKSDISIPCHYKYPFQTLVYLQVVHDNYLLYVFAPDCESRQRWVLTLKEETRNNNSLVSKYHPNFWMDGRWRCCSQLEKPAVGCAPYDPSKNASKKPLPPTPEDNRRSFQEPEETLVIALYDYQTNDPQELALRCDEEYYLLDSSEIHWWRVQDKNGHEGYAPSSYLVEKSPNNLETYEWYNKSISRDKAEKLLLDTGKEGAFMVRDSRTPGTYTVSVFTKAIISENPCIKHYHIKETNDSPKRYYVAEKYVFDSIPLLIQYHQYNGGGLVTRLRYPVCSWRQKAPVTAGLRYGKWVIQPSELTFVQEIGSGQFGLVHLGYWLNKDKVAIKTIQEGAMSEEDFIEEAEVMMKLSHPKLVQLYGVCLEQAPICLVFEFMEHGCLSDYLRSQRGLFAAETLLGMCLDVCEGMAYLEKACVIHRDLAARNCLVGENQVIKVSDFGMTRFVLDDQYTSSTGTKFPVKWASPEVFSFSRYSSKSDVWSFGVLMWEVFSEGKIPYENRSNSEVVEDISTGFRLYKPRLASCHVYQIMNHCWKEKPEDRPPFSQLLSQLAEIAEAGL

B1: Itk SH2 domain: isolated exogenous SH2 domain of Itk, purified from bacteria (protein)
chain: EWYNKSISRDKAEKLLLDTGKEGAFMVRDSRTPGTYTVSVFTKAIISENPCIKHYHIKETNDSPKRYYVAEKYVFDSIPLLIQYHQYNGGGLVTRLRYPVCSWRQKA
B2: PLCγ1 SH2C domain: isolated carboxy-terminal SH2 domain of PLCγ1 (protein)
chain: QTNAHESKEWYHASLTRAQAEHMLMRVPRDGAFLVRKRNEPNSYAISFRAEGKIKHCRVQQEGQTVMLGNSEFDSLVDLISYYEKHPLYRKMKLRYPI

Target: T1, Itk full-length enzyme
Assay: In vitro kinase assay with western blotting, phosphorylation of SH2 domain-containing substrates with added free SH2 domain or CypA
Type: biochemical
Procedure: Substrate used in each experiment is indicated above each set of blots. 4(a) (left) Itk 32 substrate was incubated with Itk full-length enzyme as before (lane 1), or with Itk 32 domain:free Itk SH2 domain in ratios of 1:10, 1:25 or 1:50 (lanes 2-4, respectively) or equivalent ratios of PI3K N-terminal SH2 domain (lanes 5-7) and subjected to an in vitro kinase assay. […] Coomassie stain and an anti-FLAG blot (bottom panels) show protein levels. (right) The PLCγ1 SH2 domain competes with the PLCγ1 substrate in a similar manner. Lane 1 contains only Itk enzyme and PLCγ1 SH2C-Y783-substrate without additional free SH2 domain. Ratios of free SH2 domain to substrate are 1:5, 1:10 or 1:50 in lanes 2-4, respectively and equivalent ratios of PI3K SH2 domain are used in lanes 5-7. Coomassie stain of the gel and an anti-Itk blot (bottom panels) show protein levels. 4(b) Same experiment as shown in (a) using the Grb2 SH2 domain as a control. (left) Itk 32 substrate was incubated with Itk full-length enzyme (lane 1), or with Itk 32 domain:free Itk SH2 domain in ratios of 1:10 and 1:25 (lanes 2 & 3) or equivalent ratios of Grb2 SH2 domain (lanes 4 & 5) and subjected to an in vitro kinase assay. (right) Identical experiment following PLCγ1 substrate phosphorylation in the presence of the PLCγ1 and Grb2 SH2 domains. Lane 1 is PLCγ1 substrate alone; lanes 2 & 3 are PLCγ1 substrate:PLCγ1 SH2 domain in a 1:10 and 1:25 ratio, respectively and lanes 4 & 5 are identical ratios of PLCγ1 substrate:Grb2 SH2 domain. 4(c) The Itk SH2 domain competes with autophosphorylation of Y180 within full length Itk. For lanes 2-4, the amount of free SH2 domain is the same as used in panel (a), lanes 2-4. No exogenous SH2 domain has been added in lane 1 and full length Itk is both the enzyme and the substrate. Coomassie stain and an anti-FLAG blot (bottom panels) show protein levels. […] Initial velocities are shown for phosphorylation of peptide B (sequence shown in FIG. 5a) by full length Itk in the absence (column 1) and presence (column 2 and 3) of Itk SH2 domain. […]

Row | Molecule | autophosphorylation of Tyr 180 within full length Itk upon addition of free SH2 domain (full length Itk is both enzyme and substrate) | inhibition of Itk 32 substrate phosphorylation (Y180) by free SH2 domain (substrate:free SH2 domain ratios 1:10, 1:25, 1:50) | inhibition of PLCγ1 SH2C-Y783- substrate phosphorylation by free SH2 domain (substrate:free SH2 domain ratios 1:5 to 1:50)
1 | B1 | greatly diminished | inhibits substrate phosphorylation | –
2 | B2 | – | – | inhibits substrate phosphorylation
